Reference: US20160334404

Molecular target: Q13093
Experiment: estimated from dilution inactivation (residual CAM activity against enzyme concentration), self-association

B1: recombinant lipoprotein-associated phospholipase A2 (rLp-PLA2) expressed in HEK293 cells (protein)
chain: FDWQYINPVAHMKSSAWVNKIQVLMAAASFGQTKIPRGNGPYSVGCTDLMFDHTNKGTFLRLYYPSQDNDRLDTLWIPNKEYFWGLSKFLGTHWLMGNILRLLFGSMTTPANWNSPLRPGEKYPLVVFSHGLGAFRTLYSAIGIDLASHGFIVAAVEHRDRSASATYYFKDQSAAEIGDKSWLYLRTLKQEEETHIRNEQVRQRAKECSQALSLILDIDHGKPVKNALDLKFDMEQLKDSIDREKIAVIGHSFGGATVIQTLSEDQRFRCGIALDAWMFPLGDEVYSRIPQPLFFINSEYFQYPANIIKMKKCYSPDKERKMITIRGSVHQNFADFTFATGKIIGHMLKLKGDIDSNVAIDLSNKASLAFLQKHLGLHKDFDQWDCLIEGDDENLIPGTNINTTNQHIMLQNSSGIEKYN
  concentration at which roughly half is monomer and half aggregate or oligomer: At the concentration at 2.5 µg/ml or 53 nM, roughly half of rLp-PLA2 is in monomer and half forms the aggregate or oligomer as estimated
